Paper doi:10.1101/405654

Biological target: GMPCPP-stabilised, rhodamine labelled microtubules (porcine brain tubulin) (porcine (purified from porcine brain)) (UniProt P02550)
Assay: single-molecule TIRF microscopy

Chain of UniProt P02550 (P02550 whole entry): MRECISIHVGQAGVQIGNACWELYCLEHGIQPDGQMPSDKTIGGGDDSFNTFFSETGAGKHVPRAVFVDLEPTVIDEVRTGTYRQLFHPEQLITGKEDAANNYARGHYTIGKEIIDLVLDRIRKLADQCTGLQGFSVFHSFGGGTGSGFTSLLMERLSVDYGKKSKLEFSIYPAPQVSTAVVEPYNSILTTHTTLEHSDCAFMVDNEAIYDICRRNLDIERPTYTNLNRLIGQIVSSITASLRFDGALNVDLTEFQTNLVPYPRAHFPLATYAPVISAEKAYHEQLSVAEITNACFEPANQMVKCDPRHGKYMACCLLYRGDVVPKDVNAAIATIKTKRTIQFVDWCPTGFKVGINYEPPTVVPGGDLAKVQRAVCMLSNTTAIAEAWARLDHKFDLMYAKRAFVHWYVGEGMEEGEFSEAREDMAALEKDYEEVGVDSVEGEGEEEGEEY

Substance | microtubule end residence time [s]
Rat kinesin-1 rKin430-GFP-h6 N263E (domain or fragment) | 0.98
Rat kinesin-1 rKin430-GFP-h6 S266A (domain or fragment) | 0.8
Rat kinesin-1 rKin430-GFP-h6 triple mutant (G262K, N263E, S266R) (domain or fragment) | 0.97

Other lines, results leading:

microtubule end residence time [s] | Substance
0.74 | Rat kinesin-1 rKin430-GFP-h6 G262K (domain or fragment)
1.39 | Rat kinesin-1 rKin430-GFP-h6 S266R (domain or fragment)
0.35 | Rat kinesin-1 rKin430-GFP-h6, wild type (domain or fragment)
